From patent publication US6410255B1, “Optical probes and assays” (priority 1999, dated 2002)
*1 amine or outer side, *2 acyl side, *3 side chain or, on linkers, in order; H or OH if unused. Where a SMILES comes first, the peptide text is derived from it. Bridges are numbered along the chain shown (N, C = ends). [ ]: non-standard residue; d: D form. Adda = CO[C@@H](Cc1ccccc1)[C@@H](C)/C=C(C)/C=C/[C@H](N[*:1])[C@H](C)C(=O)[*:2]; dAsp(3S-Me) = C[C@H](C(=O)[*:3])[C@@H](N[*:1])C(=O)[*:2]; d(γGlu) = O=C(O)[C@@H](CCC(=O)[*:2])N[*:1]; NMeDha = C=C(NC)C(=O)O

Tests used:
Format in all cases: biochemical
[1] = target: PP1 (Homo sapiens, UniProt P62136); assay: PP1 inhibitor assay with optical probe
Chain of PP1 (P62136 whole entry): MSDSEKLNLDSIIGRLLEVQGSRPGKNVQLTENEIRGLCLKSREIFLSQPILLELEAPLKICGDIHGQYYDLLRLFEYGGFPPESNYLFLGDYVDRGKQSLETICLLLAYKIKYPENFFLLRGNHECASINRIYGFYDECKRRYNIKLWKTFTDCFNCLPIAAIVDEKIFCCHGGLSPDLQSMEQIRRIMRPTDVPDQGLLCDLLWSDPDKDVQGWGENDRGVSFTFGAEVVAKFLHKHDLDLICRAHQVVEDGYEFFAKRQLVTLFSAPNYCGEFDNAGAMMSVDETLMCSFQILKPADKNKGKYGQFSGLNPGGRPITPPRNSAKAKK
Method: (§1) To determine if the optical probe protein phosphatase assay could detect inhibitors of PP1, the phosphatase assay was performed in the presence or absence of 1 μM microcystin-LR, a potent inhibitor of PP1. Phosphatase assays were set up as described above except the phosphatase was allowed to pre-incubate with microcystin-LR for 10 minutes before the addition of phosphorylated or non-phosphorylated optical probes (SEQ. ID. NO: 23). PP1 reactions were incubated at 30 C for 1 hour and then diluted to 100 μL in 50 mM HEPES, pH 7.5 followed by the addition of chymotrypsin to 0.2 μM. Fluorescence values were measured on the Cytofluor after a 2 hour incubation at room temperature as described above. After treatment of the phosphorylated optical probe with PP1 followed by chymotrypsin, the 460/530 ratio was 13.2±0.2. […] Thus, the present invention could be used to detect inhibitors of PP1 activity.

[2] = target: PP2A (Homo sapiens, UniProt P67775); assay: PP2A inhibitor assay with optical probe
Chain of PP2A (P67775 whole entry): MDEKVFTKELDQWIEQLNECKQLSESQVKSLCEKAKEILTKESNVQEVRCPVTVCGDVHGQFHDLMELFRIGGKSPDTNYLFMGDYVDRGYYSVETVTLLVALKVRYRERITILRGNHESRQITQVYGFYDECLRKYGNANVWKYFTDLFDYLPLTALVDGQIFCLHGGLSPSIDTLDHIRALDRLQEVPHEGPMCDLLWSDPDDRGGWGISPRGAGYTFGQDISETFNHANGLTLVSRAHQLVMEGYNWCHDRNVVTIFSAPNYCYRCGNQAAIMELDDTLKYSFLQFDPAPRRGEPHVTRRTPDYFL
Method: (§2) To determine if the optical probe phosphatase assay could detect inhibitors of PP2A, the phosphatase assay was performed in the presence or absence of 100 nM microcystin-LR. PP2A assays were set up as described above, and were incubated at 30 C for 2 hours. Reactions were diluted to 100 μL with 50 mM HEPES, pH 7.5 followed by the addition of chymotrypsin to 0.2 μM. Fluorescence values were measured on the Cytofluor after a 1.5 hour incubation at room temperature. As described above, treatment of the phosphorylated optical probe (SEQ. ID. NO: 23) with PP2A followed by chymotrypsin gave a final 460/530 ratio of 8.8±0.1. […] Thus, the optical probe based phosphatase assay can detect inhibitors of PP2A activity.

[3] = target: T1, chymotrypsin (Bos taurus, UniProt P00766); assay: Control: effect of inhibitor on chymotrypsin cleavage of non-phosphorylated probe
Method: as §1, §2

[4] = target: T1, chymotrypsin; assay: Chymotrypsin cleavage of optical probe with or without ERK phosphorylation; conditions: for 460/530 Emission Ratio, Negative Control (No Active Kinase) / 460/530 Emission Ratio, Positive Control (Active Kinase): 4 nM chymotrypsin
Method: This substrate (100 μM) was phosphorylated by incubation at 30 C for 3 hours in a 100 μL reaction containing 500 ng ERK (Biomol) and 500 μM ATP in a buffer consisting of 50 mM Tris-Cl, pH 7.5, 10 mM MgCl2, 1 mM EGTA, 2 mM DTT, and 0.01% Brij-35. To test the proteolytic sensitivity of phosphorylated and non-phosphorylated samples, 2 μL of the mock (no kinase) or kinase reaction was diluted to 100 μL in a buffer containing 50 mM HEPES, pH 7.5, 10 mM CaCl2, and 0.01% Brij-35, and incubated with chymotrypsin at a concentration of 4 nM. Cleavage reactions were monitored on the Cytofluor for 1 hr. […] The maximum fold difference in 460/530 ratio was about 15.2 and occurred after 30 minutes of cleavage.

[5] = target: T2, v-Abl kinase (Abelson murine leukemia virus, UniProt P00521); assay: v-Abl kinase phosphorylation of optical probe, fluorescence readout after chymotrypsin; conditions: v-Abl, abl optical probe as substrate; read-out: apparent Km for ATP
T2 construct: purchased Calbiochem
T2 sequence (P00521 whole entry): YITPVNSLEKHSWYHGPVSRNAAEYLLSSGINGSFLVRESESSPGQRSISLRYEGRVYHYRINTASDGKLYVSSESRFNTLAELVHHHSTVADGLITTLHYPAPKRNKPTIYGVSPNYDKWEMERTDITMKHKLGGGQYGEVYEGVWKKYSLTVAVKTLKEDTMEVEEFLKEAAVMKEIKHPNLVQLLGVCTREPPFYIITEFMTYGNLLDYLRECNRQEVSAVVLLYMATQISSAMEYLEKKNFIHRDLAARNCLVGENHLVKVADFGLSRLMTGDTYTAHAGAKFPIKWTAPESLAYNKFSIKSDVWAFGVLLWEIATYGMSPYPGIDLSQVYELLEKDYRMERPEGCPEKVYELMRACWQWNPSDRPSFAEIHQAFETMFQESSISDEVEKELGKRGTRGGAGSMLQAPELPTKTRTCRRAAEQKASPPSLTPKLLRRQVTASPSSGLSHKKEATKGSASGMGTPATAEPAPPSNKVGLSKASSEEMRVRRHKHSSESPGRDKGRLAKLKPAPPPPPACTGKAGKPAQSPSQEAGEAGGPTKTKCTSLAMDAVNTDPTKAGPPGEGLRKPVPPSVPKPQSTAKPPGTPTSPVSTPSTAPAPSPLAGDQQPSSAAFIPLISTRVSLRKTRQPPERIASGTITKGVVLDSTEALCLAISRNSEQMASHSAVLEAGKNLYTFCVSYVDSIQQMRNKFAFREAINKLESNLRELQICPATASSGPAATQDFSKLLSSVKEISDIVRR

Question: How did the “460/530 ratio After Chymotrypsin, Phosphorylated Optical probe + PP1 + microcystin-LR” value [1] turn out when C=C1C(=O)N[C@H](C)C(=O)N[C@@H](CC(C)C)C(=O)N[C@@H](C(=O)O)[C@H](C)C(=O)N[C@@H](CCCNC(=N)N)C(=O)N[C@@H](/C=C/C(C)=C/[C@H](C)[C@H](Cc2ccccc2)OC)[C@H](C)C(=O)N[C@@H](C(=O)O)CCC(=O)N1C [microcystin-LR, reference compound] (R[Adda][d(γGlu)][NMeDha][dA]L[dAsp(3S-Me)]-OH; lactam N-7) was run?
Answer: Its value is 2.8 ± 0.1.

Question: And the “inhibition of PP1 activity” value [1]?
Answer: Its value is “almost completely inhibited”.

Question: What about the “460/530 ratio After Chymotrypsin, Phosphorylated Optical probe + PP2A + microcystin-LR” value [2] of the same compound?
Answer: Its value is 1.9 ± 0.1.

Question: And the “460/530 ratio Before Chymotrypsin, Phosphorylated Optical probe + PP2A + microcystin-LR” value [2]?
Answer: The value was 1.4 ± 0.1.

Question: What about the “inhibition of PP2A activity” value [2] of the same compound?
Answer: The value was “completely inhibited”.

Question: What about the “460/530 ratio After Chymotrypsin, Non-phosphorylated Optical probe + PP1 + microcystin-LR” value [3] of the same compound?
Answer: Its value is 13.3 ± 0.2.

Question: What about the “460/530 ratio After Chymotrypsin, Non-phosphorylated Optical probe + PP2A + microcystin-LR” value [3] of the same compound?
Answer: Its value is 11.1 ± 0.2.

Question: What about the “460/530 ratio Before Chymotrypsin, Non-phosphorylated Optical probe + PP2A + microcystin-LR” value [3] of the same compound?
Answer: The value was 1.4 ± 0.1.

Question: And the “inhibition of chymotrypsin cleavage” value [3]?
Answer: The value was “did not inhibit”.

Question: What does the source list for “VAPFSPGGRAK [optical probe designed as a substrate for extracellular signal-regulated kinase (ERK)]”?
Answer: 460/530 Emission Ratio, Negative Control (No Active Kinase) ([4]; time of cleavage 0 min): 0.28; 460/530 Emission Ratio, Positive Control (Active Kinase) ([4]; time of cleavage 0 min): 0.33; 460/530 Emission Ratio, Negative Control (No Active Kinase) ([4]; time of cleavage 10 min): 4.17; 460/530 Emission Ratio, Positive Control (Active Kinase) ([4]; time of cleavage 10 min): 0.44; 460/530 Emission Ratio, Negative Control (No Active Kinase) ([4]; time of cleavage 20 min): 7.56; 460/530 Emission Ratio, Positive Control (Active Kinase) ([4]; time of cleavage 20 min): 0.56; 460/530 Emission Ratio, Negative Control (No Active Kinase) ([4]; time of cleavage 30 min): 10.03; 460/530 Emission Ratio, Positive Control (Active Kinase) ([4]; time of cleavage 30 min): 0.66; 460/530 Emission Ratio, Negative Control (No Active Kinase) ([4]; time of cleavage 40 min): 11.71; 460/530 Emission Ratio, Positive Control (Active Kinase) ([4]; time of cleavage 40 min): 0.78; 460/530 Emission Ratio, Negative Control (No Active Kinase) ([4]; time of cleavage 50 min): 12.73; 460/530 Emission Ratio, Positive Control (Active Kinase) ([4]; time of cleavage 50 min): 0.89; 460/530 Emission Ratio, Negative Control (No Active Kinase) ([4]; time of cleavage 60 min): 13.40; 460/530 Emission Ratio, Positive Control (Active Kinase) ([4]; time of cleavage 60 min): 1.00; Fold difference in ratios ([4]; time of cleavage 0 min): 0.85; Fold difference in ratios ([4]; time of cleavage 10 min): 9.45; Fold difference in ratios ([4]; time of cleavage 20 min): 13.55; Fold difference in ratios ([4]; time of cleavage 30 min): 15.16; Fold difference in ratios ([4]; time of cleavage 40 min): 14.99; Fold difference in ratios ([4]; time of cleavage 50 min): 14.34; Fold difference in ratios ([4]; time of cleavage 60 min): 13.36

Question: Nc1ncnc2c1ncn2[C@@H]1O[C@H](COP(=O)(O)OP(=O)(O)OP(=O)(O)O)[C@@H](O)[C@H]1O [ATP] was tested. Which Km [5] did it give?
Answer: Its Km is 8 µM.
